Results: patent US20100254982A1 (VIVENTIA BIOTECHNOLOGIES, published 2010)

Legend:
[1] = target: Glucose transporter 8 (GLUT8), cancer-associated variant expressed on the surface of cancer cells (VB1-050 antigen) (human) (UniProt Q9NY64); experiment: cell-based or functional assay
[2] = target: Glucose transporter 8 (GLUT8), cancer-associated variant expressed on the surface of cancer cells (VB1-050 antigen) (human) (UniProt Q9NY64); experiment: flow cytometry saturation curve on antigen-positive cells
[3] = target: T1, Glucose transporter 8 (GLUT8), cancer-associated variant expressed on the surface of cancer cells (VB1-050 … (human, UniProt Q9NY64 1-477)); experiment: flow cytometry on A-375 cells, cells kept on ice for 120 minutes; above negative control human IgG (4B5)
T1 construct: whole, on cells; Endogenous antigen of human tumor cell lines, identified by immunoprecipitation with VB1-050 and mass spectrometry from HepG2 and MCF-7 membranes; Only L12A and L13A are printed with old and new residues; In the immunoprecipitations the membrane preparations were deglycosylated with N-Glycanase; also called VB1-050Ag; VB1-050 Ag
T1 sequence (looked up): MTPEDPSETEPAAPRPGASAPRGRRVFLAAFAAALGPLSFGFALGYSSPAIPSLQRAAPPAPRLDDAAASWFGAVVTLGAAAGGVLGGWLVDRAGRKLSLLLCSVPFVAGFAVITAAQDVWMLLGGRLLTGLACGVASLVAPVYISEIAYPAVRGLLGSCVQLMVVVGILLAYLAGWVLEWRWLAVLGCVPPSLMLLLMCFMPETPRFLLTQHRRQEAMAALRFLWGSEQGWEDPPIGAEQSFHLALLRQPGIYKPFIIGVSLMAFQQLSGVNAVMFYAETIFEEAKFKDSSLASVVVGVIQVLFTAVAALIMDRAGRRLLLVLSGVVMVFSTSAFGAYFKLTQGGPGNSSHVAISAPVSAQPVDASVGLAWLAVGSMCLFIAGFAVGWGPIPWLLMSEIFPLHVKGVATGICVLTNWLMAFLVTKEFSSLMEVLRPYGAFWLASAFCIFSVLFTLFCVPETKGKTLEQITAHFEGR

[4] = target: T1, Glucose transporter 8 (GLUT8), …; experiment: flow cytometry, normal breast cell line HMEC
[5] = target: T1, Glucose transporter 8 (GLUT8), …; experiment: flow cytometry, melanoma cell lines A-375, SK-MEL-5, SK-MEL-28 (mean of 3)
[6] = target: T1, Glucose transporter 8 (GLUT8), …; experiment: flow cytometry, normal prostate cell line PrEC
[7] = target: T1, Glucose transporter 8 (GLUT8), …; experiment: flow cytometry competition on antigen-positive cells; competitor VB6-050 fixed at 250 µg/mL, detected with anti-bouganin antibody
[8] = target: T1, Glucose transporter 8 (GLUT8), …; experiment: flow cytometry, prostate tumor cell lines DU-145, PC-3, LNCaP (mean of 3)
[9] = target: T1, Glucose transporter 8 (GLUT8), …; experiment: flow cytometry, liver tumor cell lines SK-HEP-1, Hep-G2 (mean of 2)
[10] = target: T1, Glucose transporter 8 (GLUT8), …; experiment: flow cytometry, ovarian tumor cell lines SK-OV-3, OVCar-3 (mean of 2)
[11] = target: T1, Glucose transporter 8 (GLUT8), …; experiment: flow cytometry, normal kidney cell line HRE
[12] = target: T1, Glucose transporter 8 (GLUT8), …; experiment: flow cytometry, pancreas tumor cell lines PANC-1, BxPC-3, MIA PaCa-2 (mean of 3)
[13] = target: T1, Glucose transporter 8 (GLUT8), …; experiment: flow cytometry, colon tumor cell lines HT-29, SW480, WiDr (mean of 3)
[14] = target: T1, Glucose transporter 8 (GLUT8), …; experiment: flow cytometry, stomach tumor cell lines AGS, NCI-N-87, KATO III (mean of 3)
[15] = target: T1, Glucose transporter 8 (GLUT8), …; experiment: flow cytometry titration on A-375 cells, Lineweaver-Burk method
[16] = target: T1, Glucose transporter 8 (GLUT8), …; experiment: flow cytometry, breast tumor cell lines MCF-7, MDA-MB-231, MDA-MB-435S (mean of 3)
[17] = target: T1, Glucose transporter 8 (GLUT8), …; experiment: flow cytometry, head & neck tumor cell lines SCC-15, SCC-25 (mean of 2)
[18] = target: T1, Glucose transporter 8 (GLUT8), …; experiment: flow cytometry, rectum tumor cell lines Sw837, NCI-H630 (mean of 2)
[19] = target: T1, Glucose transporter 8 (GLUT8), …; experiment: flow cytometry, bladder tumor cell lines UM-UC-3, T24 (mean of 2)
[20] = target: T1, Glucose transporter 8 (GLUT8), …; experiment: flow cytometry, kidney tumor cell lines Caki-1, A498, ACHN (mean of 3)
[21] = target: T1, Glucose transporter 8 (GLUT8), …; experiment: flow cytometry on A-375 cells, surface-bound antibody left after 120 min at 37 °C (internalization experiment)
[22] = target: T1, Glucose transporter 8 (GLUT8), …; experiment: flow cytometry, endometrium tumor cell lines RL-95-2, HEC-1-A (mean of 2)
[23] = target: T1, Glucose transporter 8 (GLUT8), …; experiment: flow cytometry, cervix tumor cell lines HeLa, C-41, C-33A (mean of 3)
[24] = target: T1, Glucose transporter 8 (GLUT8), …; experiment: flow cytometry, lung tumor cell lines A-549, NCI-H460, NCI-H69 (mean of 3)
[25] = target: T1, Glucose transporter 8 (GLUT8), …; experiment: flow cytometry, normal lung cell line NHLF
[26] = target: T1, Glucose transporter 8 (GLUT8), …; experiment: flow cytometry, normal endothelial cell line HUVEC
[27] = target: T1, Glucose transporter 8 (GLUT8), …; experiment: flow cytometry on A-375 cells, surface-bound antibody left after 60 min at 37 °C (internalization experiment)

B1: VB6-050 (soluble Fab-de-bouganin fusion protein derived from VB1-050) (Fab, V domains shown)
VH: EVQLLESGGDLVQPGGSLRLSCAASGFTFSNYAMSWVRQAPGKGLEWVSAITPSGGSTNYADSVKGRFTISRDNSQNTLYLQMNSLRVEDTAVYYCGRVPYRSTWYPLYWGQGTLVTVSS
VL: DIQMTQSPSSLSASVGDRVTITCRASQDISNYLAWFQRKPGKAPKSLIYAASSLHSKVPTQFSGSGSGTDFTLTISSLQPEDFATYYCLQYSTYPITFGGGTKVEIK
- IC50 (MTS cytotoxicity assay, 5 days, antigen-positive cells MB-435S) [1]: 400 nM
- saturation point [2]: 250 µg/mL

B2: VB1-050 monoclonal antibody (antibody, V domains shown)
VH: EVQLLESGGDLVQPGGSLRLSCAASGFTFSNYAMSWVRQAPGKGLEWVSAITPSGGSTNYADSVKGRFTISRDNSQNTLYLQMNSLRVEDTAVYYCGRVPYRSTWYPLYWGQGTLVTVSS
VL: DIQMTQSPSSLSASVGDRVTITCRASQDISNYLAWFQRKPGKAPKSLIYAASSLHSKVPTQFSGSGSGTDFTLTISSLQPEDFATYYCLQYSTYPITFGGGTKVEIKR
notes: also called VB1-050 IgG; parental IgG
- Fold-increase in MF [3]: 129 fold
- MF (mean fold increase in median fluorescence over control antibody) [4]: 3.1 fold
- MF (mean fold increase in median fluorescence over control antibody) [5]: 22.7 fold
- MF (mean fold increase in median fluorescence over control antibody) [6]: 2.1 fold
- IC50 [7]: 180 µg/mL
- MF (mean fold increase in median fluorescence over control antibody) [8]: 19.6 fold
- MF (mean fold increase in median fluorescence over control antibody) [9]: 14.6 fold
- MF (mean fold increase in median fluorescence over control antibody) [10]: 21.7 fold
- MF (mean fold increase in median fluorescence over control antibody) [11]: 12.5 fold
- MF (mean fold increase in median fluorescence over control antibody) [12]: 7.6 fold
- MF (mean fold increase in median fluorescence over control antibody) [13]: 13.3 fold
- MF (mean fold increase in median fluorescence over control antibody) [14]: 9.6 fold
- Kd [15]: 49 nM
- MF (mean fold increase in median fluorescence over control antibody) [16]: 29.9 fold
- MF (mean fold increase in median fluorescence over control antibody) [17]: 11.4 fold
- MF (mean fold increase in median fluorescence over control antibody) [18]: 15.2 fold
- MF (mean fold increase in median fluorescence over control antibody) [19]: 9.8 fold
- MF (mean fold increase in median fluorescence over control antibody) [20]: 18.4 fold
- Fold-increase in MF [21]: 39.3 fold
- MF (mean fold increase in median fluorescence over control antibody) [22]: 7 fold
- MF (mean fold increase in median fluorescence over control antibody) [23]: 11.8 fold
- MF (mean fold increase in median fluorescence over control antibody) [24]: 14.8 fold
- MF (mean fold increase in median fluorescence over control antibody) [25]: 8.7 fold
- MF (mean fold increase in median fluorescence over control antibody) [26]: 5 fold
- Fold-increase in MF [27]: 49.2 fold
